Values of other authors, collected in article PMC10046553.

Molecular target: CD71 (transferrin receptor 1) (Homo sapiens) (UniProt P02786)
Sequence (P02786 89-760): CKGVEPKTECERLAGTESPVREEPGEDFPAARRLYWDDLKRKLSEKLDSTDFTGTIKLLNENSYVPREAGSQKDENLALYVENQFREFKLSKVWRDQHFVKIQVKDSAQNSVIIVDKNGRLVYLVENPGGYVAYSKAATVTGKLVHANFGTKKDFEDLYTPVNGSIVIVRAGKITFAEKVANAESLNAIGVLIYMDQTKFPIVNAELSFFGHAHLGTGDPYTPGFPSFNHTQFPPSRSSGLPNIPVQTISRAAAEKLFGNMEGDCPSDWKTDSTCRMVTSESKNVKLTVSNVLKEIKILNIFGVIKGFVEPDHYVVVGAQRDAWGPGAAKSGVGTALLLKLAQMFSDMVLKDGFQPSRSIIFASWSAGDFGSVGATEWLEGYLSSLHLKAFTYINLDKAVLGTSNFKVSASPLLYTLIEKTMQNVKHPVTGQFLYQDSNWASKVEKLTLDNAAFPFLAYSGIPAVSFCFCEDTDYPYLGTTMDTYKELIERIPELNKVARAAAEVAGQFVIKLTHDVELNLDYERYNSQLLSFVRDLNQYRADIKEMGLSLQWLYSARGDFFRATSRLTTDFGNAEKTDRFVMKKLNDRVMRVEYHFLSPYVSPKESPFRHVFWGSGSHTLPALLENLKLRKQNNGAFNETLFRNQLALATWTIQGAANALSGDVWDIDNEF

Kd: 750 nM
Substance: Human serum albumin (from UniProt P02768)
